Numbering of substitutions follows the chain as printed.
B1: 263A11E3 (antibody, V domains shown)
VH: QVQLQESGPGLVKPSETLSLTCAVSGYSISSGYYWGWIRQPPGKGLEWIGSIYHSGSTSYNPSLRSRVTISVDTSKNQFSLKLSSVTAADTAVYYCARDAGGFDYWGQGTLVTVSS
VL: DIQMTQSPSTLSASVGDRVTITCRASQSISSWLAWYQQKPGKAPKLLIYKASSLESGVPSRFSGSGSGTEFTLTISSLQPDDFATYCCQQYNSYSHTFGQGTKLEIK
B2: 258F5A8 (antibody, V domains shown)
VH: QVQLVESGGGVVQPGRSLRLSCAASGFTFSSYGMHWVRQAPGKGLEWVAVIWYDGSNKYYADSVKGRFNISRDNSKNTLYLQMNSLRAEDTAVYYCARGPYLYSSGWYDYYYYGMDVWGQGTTVTVSS
VL: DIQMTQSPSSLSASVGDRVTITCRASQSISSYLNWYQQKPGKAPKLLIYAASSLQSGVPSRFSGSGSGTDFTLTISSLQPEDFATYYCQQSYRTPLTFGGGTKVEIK
B3: 259G10E11 (antibody, V domains shown)
VH: B2 VH with N69T
VL: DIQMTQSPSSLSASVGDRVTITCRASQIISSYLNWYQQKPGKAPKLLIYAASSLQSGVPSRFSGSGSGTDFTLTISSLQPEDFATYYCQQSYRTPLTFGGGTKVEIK
B4: 113F6C6 (antibody, V domains shown)
VH: QVQLVESGGGVVQPGRSLRLSCAASGLTFSSYGMHWVRQAPGKGLEWVAVIWYDGSNKYYADSVKGRFTISRDNSKNTLYLQMNSLRAEDTAVYYCAREEVLWFGELSYNYYYGMDVWGQGTTVTVSS
VL: DIQMTQSPSSLSASVGDRVTITCRASQGISNYLAWYQQKPGKVPKLLIYAASTLQSGVPSRFSGSGSGTDFTLTISSLQPEDVATYYCQKYNSVPLTFGGGTKVEIK
notes: also called 4-1BB fully human antibody 113F6C6; 113F6F6
B5: 57B3D10 (antibody, V domains shown)
VH: QVQLQESGPGLVKPSETLSLTCTVSGGSISSYYWSWIRQPPGKGLEWIGYIYYSGSTNYNPSLKSRVTISVDTSKSQFSLKLTSVTAADTAVYYCAKDSDYYGSGSYSYWYFDLWGRGTLVTVSS
VL: EIVMTQSPATLSVSPGERATLSCRASQSVSSNLAWYQQKPGQAPRLLIYGASTRAPGIPARFSGSGSGTEFTLTISSLQSEDFAVYYCQQYNNWPLTFGGGTKVEIK
notes: also called 4-1BB fully human antibody 57B3D10
B6: 119B6G5 (antibody, V domains shown)
VH: EVQLLESGGGLVQPGGSLRLSCAASGFTFSNYAMSWVRQGPGKGLEWVSTIIGSGDSTYYTDSVKGRFTISRDNSKNTLFLQMNSLRAEDTAVYYCARDKSGWYYFDYWGQGTLVTVSS
VL: DIQMTQSPSTLSASVGDRVTITCRASQSISNWLAWYQQKPGKAPKLLIYKASSLESGVPSRFSGSGSGTEFTLTISSLQPDDFATYYCQQYNDYFPITFGQGTRLEIK
B7: 15G10D4 (antibody, V domains shown)
VH: QVQLVESGGGVVQPGRSLRLSCAASGFSFSSYAMHWVRQAPGKGLEWVAIIWYDGSNQYYADSVKGRFTISRDNSKNTLYLQMNSLRAEDTAVYYCARVKQWLVSYFDYWGQGTLVTVSS
VL: EIVMTQSPATLSVSPGERATLSCRASQSVSSNLAWYQQKPGQVPRLLIYGASTRATGIPARFSGSGSGTEFSLIISSLQSEDFAVYYCQQYNNWPTFGGGTKVEIK

These binders were tested against T1, monkey 4-1BB on CHOK1 cells (monkey) (assay: FACS, CHOK1-c4-1BB cells; Ab 2 ug/ml).
T1 construct: whole, on cells; also called CHOK1-c4-1BB
From the text: (§1) The pIRES plasmid carrying the full-length gene of monkey-derived […] (the preparation method is the same as the preparation method of the pCpC vector carrying the human-derived IgG Fc fragment (hFc) in “Preparation of immunogen A” of the step (1) in Example 1, in which the database accession number of the amino acid sequence of the extracellular region of monkey 4-1BB protein (Phe19-Thr239) is G7PSE7) was transfected into CHOK1 cell line to obtain CHOK1 stable transfected cell line containing monkey 4-1BB (herein referred to as CHOK1-c4-1BB stable cell line). The CHOK1-h4-1BB stable cell line and the CHOK1-c4-1BB stable cell line were expanded and cultivated to 90% confluence in T-75 cell culture flasks. The medium was exhausted, and washed twice with HBSS buffer (Hanks Balanced Salt Solution, purchased from Invitrogen), and then the cells were treated and collected with enzyme-free cell dissociation solution (Versene solution, purchased from Life Technology). The cells were washed twice with HBSS buffer, and after cell counting, the cells were diluted with HBSS buffer to 2×10⁶ cells per ml, and 1% goat serum blocking solution was added, the percentage being the mass percentage. It was incubated on ice for 30 minutes, and then washed twice with HBSS buffer by centrifugation. The collected cells were suspended in FACS buffer (HBSS containing 1% BSA, the percentage was the mass percentage) to 2×10⁶ cells/mL, and 100 μl per well was added to a 96-well FACS reaction plate. The purified 4-1BB antibody test sample obtained in Example 2 was added, 100 microliters per well and incubated on ice for 2 hours. […] It was washed three times with FACS buffer by centrifugation, and 100 μl of fixative [4% (v/v) paraformaldehyde] per well was added to suspend cells, and washed twice with FACS buffer after 10 minutes by centrifugation. The cells were suspended with 100 microliters of FACS buffer, and the results were detected and analyzed with FACS (FACS Calibur, purchased from BD).

Row | average fluorescence intensity [MFI] | Binder
1 | 93.5 | B1
2 | 112 | B2
3 | 107 | B3
4 | 438 | B4
5 | 567 | B5
6 | 1350 | B6
7 | 646 | B7

What follows are binders tested against T1, monkey 4-1BB on CHOK1 cells (assay: FACS, CHOK1-c4-1BB cells; Ab 10 ug/ml).
From the text: as §1

Row | average fluorescence intensity [MFI] | Binder
8 | 124 | B1
9 | 131 | B2
10 | 126 | B3
11 | 426 | B4
12 | 581 | B5
13 | 1470 | B6
14 | 550 | B7

What follows are binders tested against T2, human 4-1BB, full length, on transfected cells (human, UniProt Q07011 24-255) (assay: FACS, CHOK1-h4-1BB cells; Ab 0.08 ug/ml).
T2 construct: whole, on cells; also called CHOK1-h4-1BB
From the text: as §1

T2 sequence (Q07011 24-255): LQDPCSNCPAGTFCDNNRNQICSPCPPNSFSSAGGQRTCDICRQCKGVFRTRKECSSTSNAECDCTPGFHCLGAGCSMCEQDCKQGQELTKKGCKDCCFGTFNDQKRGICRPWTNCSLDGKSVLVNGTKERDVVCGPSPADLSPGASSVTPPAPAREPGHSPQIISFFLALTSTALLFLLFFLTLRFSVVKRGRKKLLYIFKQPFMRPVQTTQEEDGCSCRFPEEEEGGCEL

Row | average fluorescence intensity [MFI] | Binder
15 | 356 | B1
16 | 252 | B2
17 | 252 | B3
18 | 154 | B4
19 | 389 | B5
20 | 199 | B6
21 | 322 | B7

These binders were tested against T1, monkey 4-1BB on CHOK1 cells (assay: FACS, CHOK1-c4-1BB cells; Ab 0.08 ug/ml).
From the text: as §1

Row | average fluorescence intensity [MFI] | Binder
22 | 21.1 | B1
23 | 26.6 | B2
24 | 25.4 | B3
25 | 182 | B4
26 | 166 | B5
27 | 303 | B6
28 | 156 | B7

What follows are binders tested against T2, human 4-1BB, full length, on … (assay: FACS, CHOK1-h4-1BB cells; Ab 0.016 ug/ml).
From the text: as §1

Row | average fluorescence intensity [MFI] | Binder
29 | 85.6 | B1
30 | 68 | B2
31 | 67.2 | B3
32 | 46.2 | B4
33 | 148 | B5
34 | 49.1 | B6
35 | 98.2 | B7

These binders were tested against T1, monkey 4-1BB on CHOK1 cells (assay: FACS, CHOK1-c4-1BB cells; Ab 0.0032 ug/ml).
From the text: as §1

Row | average fluorescence intensity [MFI] | Binder
36 | 3.8 | B1
37 | 4.5 | B2
38 | 4.3 | B3
39 | 15.1 | B4
40 | 15 | B5
41 | 20.7 | B6
42 | 12 | B7

These binders were tested against T3, hFc-tagged human 4-1BB extracellular domain protein (4-1BB-hFc) (human, UniProt Q07011 24-186, limits assumed) (assay: ELISA, coated human 4-1BB-hFc; Ab 10 ug/ml).
T3 construct: also called immunogen A; 4-1BB^ECD-hFc; not shown: human IgG Fc fragment (hFc) of the pCpC vector
Protocol: (§2) The purified immunogen A (4-1BB-hFc), monkey 4-1BB-his, and mouse 4-1BB-his obtained in Example 1 [for the preparation method, see step 1 of Example 1, preparation of immunogen A], of which the extracellular domain of monkey-derived 4-1BB protein (purchased from ACRO biosystems), the extracellular domain of mouse 4-1BB protein (purchased from sino biological) or other immune detection point proteins respectively were diluted with PBS to a final concentration of 1.0 μg/mL, then added with […] per well to 96-well ELISA plate. It was sealed with plastic film and incubated at 4° C. overnight. The next day, the plate was washed twice with the plate-washing solution [PBS containing 0.01% (v/v) Tween20] and blocking solution [PBS containing 0.01% (v/v) Tween 20 and 1% (v/v) BSA] was added and blocked at room temperature for 2 hours. The blocking solution was discarded and 100 μl of the purified 4-1BB antibody obtained in Example 2 was added per well. After incubated at 37° C. for 2 hours, the plate was washed 3 times with a plate-washing solution [PBS containing 0.01% (v/v) Tween20]. A secondary antibody (purchased from Sigma) labeled with HRP (horseradish peroxidase) was added, and after incubated at 37° C. for 2 hours, the plate was washed 3 times with a plate-washing solution [PBS containing 0.01% (v/v) Tween20]. 100 μl of TMB substrate was added per well. After incubated for 30 minutes at room temperature, 100 μl of stop buffer (1.0N HCl) was added per well. The A450 nm values were read using an ELISA plate reader (SpectraMax 384plus, Molecular Device).

Row | OD450 nm [OD450 nm] | Binder
43 | 2.75 | B1
44 | 2.68 | B2
45 | 2.8 | B3
46 | 2.78 | B6
47 | 3.53 | B7

The binders below were run against T4, monkey 4-1BB-his protein (monkey) (assay: ELISA, coated monkey 4-1BB-his; Ab 2 ug/ml).
T4 construct: extracellular domain; Bought protein; also called extracellular domain of monkey-derived 4-1BB protein
Protocol: as §2

Row | OD450 nm [OD450 nm] | Binder
48 | 0.39 | B1
49 | 1.78 | B2
50 | 1.51 | B3
51 | 2.2 | B4
52 | 2.47 | B5
53 | 2.46 | B6

Each binder was assayed against T2, human 4-1BB, full length, on … (assay: FACS, CHOK1-h4-1BB cells; Ab 0.00064 ug/ml).
From the text: as §1

Row | average fluorescence intensity [MFI] | Binder
54 | 8 | B1
55 | 7 | B2
56 | 7.1 | B3
57 | 4.8 | B4
58 | 12.5 | B5
59 | 5.1 | B6
60 | 9.3 | B7

What follows are binders tested against T1, monkey 4-1BB on CHOK1 cells (assay: FACS, CHOK1-c4-1BB cells; Ab 0.00064 ug/ml).
From the text: as §1

Row | average fluorescence intensity [MFI] | Binder
61 | 2.8 | B1
62 | 3 | B2
63 | 2.9 | B3
64 | 5.5 | B4
65 | 5.6 | B5
66 | 6.6 | B6
67 | 4.8 | B7

What follows are binders tested against T3, hFc-tagged human 4-1BB extracellular … (assay: ELISA, coated human 4-1BB-hFc; Ab 0.016 ug/ml).
Protocol: as §2

Row | OD450 nm [OD450 nm] | Binder
68 | 1.23 | B1
69 | 1.06 | B2
70 | 1.29 | B3
71 | 1.25 | B6
72 | 1.72 | B7

These binders were tested against T3, hFc-tagged human 4-1BB extracellular … (assay: ELISA, coated human 4-1BB-hFc; Ab 0.0001 ug/ml).
Protocol: as §2

Row | OD450 nm [OD450 nm] | Binder
73 | 0.07 | B1
74 | 0.06 | B2
75 | 0.07 | B3
76 | 0.07 | B6
77 | 0.17 | B7

Each binder was assayed against T4, monkey 4-1BB-his protein (assay: ELISA, coated monkey 4-1BB-his; Ab 0.016 ug/ml).
Protocol: as §2

Row | OD450 nm [OD450 nm] | Binder
78 | 0.07 | B1
79 | 0.13 | B2
80 | 0.12 | B3
81 | 0.47 | B4
82 | 0.81 | B5
83 | 0.77 | B6

These binders were tested against T4, monkey 4-1BB-his protein (assay: ELISA, coated monkey 4-1BB-his; Ab 0.0001 ug/ml).
Protocol: as §2

Row | OD450 nm [OD450 nm] | Binder
84 | 0.07 | B1
85 | 0.07 | B2
86 | 0.07 | B3
87 | 0.07 | B4
88 | 0.08 | B5
89 | 0.08 | B6

These binders were tested against T2, human 4-1BB, full length, on … (assay: FACS on CHOK1-h4-1BB cells, Alexa 488 secondary antibody, average fluorescence intensity).
From the text: as §1

Row | EC50 (read off the curve) [µg/mL] | Binder
90 | ~0.3 | B1
91 | ~0.2 | B2
92 | ~0.2 | B3
93 | ~0.1 | B4
94 | ~0.05 | B5
95 | ~0.05 | B7

Reference: patent US20200347144A1 (SHANGHAI HYAMAB BIOTECH, published 2020)
